Measured values reported in patent publication US20190375824A1 (PANASONIC INTELLECTUAL PROPERTY MANAGEMENT, published 2019).

Biological target: T1, human serum albumin (human, UniProt P02768 25-609)
T1 construct: Antigen in the SPR assay
Assay: SPR
Method: The binding affinity of the provided VHH antibodies to human serum albumin was measured with surface plasmon resonance.

Row | Binder | Kd | koff | kon
1 | VHH antibody of SEQ ID NO: 1 (VHH, Isolated from a phage library; also called WT VHH) VHH: QVQLVESGGGLVQAGDSLRLSCAASGRTFSGYAMGWFRQAPGKEREFVARINWSGTLTYYADSVKGRFTGSRDNAKNTVYLQMNSLKPEDTAVYYCAQRGDSGSNYDPSGYSYWGQGTQVTVSS | 261 nM | 0.371 s⁻¹ | 1.42e+06 M⁻¹ s⁻¹
2 | VHH antibody in which serine in position 116 of SEQ ID NO: 1 was substituted with arginine (SEQ ID NO: 6) (VHH, Expressed in E. coli; also called S116R mutant) VHH: QVQLVESGGGLVQAGDSLRLSCAASGRTFSGYAMGWFRQAPGKEREFVARINWSGTLTYYADSVKGRFTGSRDNAKNTVYLQMNSLKPEDTAVYYCAQRGDSGSNYDPSGYRYWGQGTQVTVSS | 35.6 nM | 0.591 s⁻¹ | 1.66e+07 M⁻¹ s⁻¹
3 | VHH antibody in which glycine in position 36, glycine in position 78, and serine in position 116 of SEQ ID NO: 1 were substituted (SEQ ID NO: 10) (VHH, Text says asparagine at IMGT 36; also called G36D/G78A/S116R mutant) VHH: QVQLVESGGGLVQAGDSLRLSCAASGRTFSDYAMGWFRQAPGKEREFVARINWSGTLTYYADSVKGRFTASRDNAKNTVYLQMNSLKPEDTAVYYCAQRGDSGSNYDPSGYRYWGQGTQVTVSS | 365 nM | 0.411 s⁻¹ | 1.13e+06 M⁻¹ s⁻¹
4 | VHH antibody in which glycine in position 36, arginine in position 50, and serine in position 116 of SEQ ID NO: 1 were substituted (SEQ ID NO: 9) (VHH, Text says asparagine at IMGT 36; also called G36D/R50L/S116R mutant) VHH: QVQLVESGGGLVQAGDSLRLSCAASGRTFSDYAMGWFRQAPGKELEFVARINWSGTLTYYADSVKGRFTGSRDNAKNTVYLQMNSLKPEDTAVYYCAQRGDSGSNYDPSGYRYWGQGTQVTVSS | 77.9 nM | 0.0879 s⁻¹ | 1.13e+06 M⁻¹ s⁻¹
5 | VHH antibody in which glycine in position 36 of SEQ ID NO: 1 was substituted (SEQ ID NO: 3) (VHH, Text says asparagine at IMGT 36; Expressed in E. coli; also called G36D mutant) VHH: QVQLVESGGGLVQAGDSLRLSCAASGRTFSDYAMGWFRQAPGKEREFVARINWSGTLTYYADSVKGRFTGSRDNAKNTVYLQMNSLKPEDTAVYYCAQRGDSGSNYDPSGYSYWGQGTQVTVSS | 61.4 nM | 0.125 s⁻¹ | 2.04e+06 M⁻¹ s⁻¹
6 | VHH antibody in which glycine in position 36, arginine in position 50, glycine in position 78, and serine in position 116 of SEQ ID NO: 1 were substituted (SEQ … (VHH, Text says asparagine at IMGT 36; also called G36D/R50L/G78A/S116R mutant) VHH: QVQLVESGGGLVQAGDSLRLSCAASGRTFSDYAMGWFRQAPGKELEFVARINWSGTLTYYADSVKGRFTASRDNAKNTVYLQMNSLKPEDTAVYYCAQRGDSGSNYDPSGYRYWGQGTQVTVSS | 380 nM | 0.355 s⁻¹ | 933000 M⁻¹ s⁻¹
7 | VHH antibody in which glycine in position 36 and serine in position 116 of SEQ ID NO: 1 were substituted (SEQ ID NO: 7) (VHH, Text says asparagine at IMGT 36; also called G36D/S116R mutant) VHH: QVQLVESGGGLVQAGDSLRLSCAASGRTFSDYAMGWFRQAPGKEREFVARINWSGTLTYYADSVKGRFTGSRDNAKNTVYLQMNSLKPEDTAVYYCAQRGDSGSNYDPSGYRYWGQGTQVTVSS | 44.7 nM | 0.0643 s⁻¹ | 1.44e+06 M⁻¹ s⁻¹
8 | VHH antibody in which arginine in position 50 of SEQ ID NO: 1 was substituted (SEQ ID NO: 4) (VHH, Text says asparagine at IMGT 50; Expressed in E. coli; also called R50L mutant) VHH: QVQLVESGGGLVQAGDSLRLSCAASGRTFSGYAMGWFRQAPGKELEFVARINWSGTLTYYADSVKGRFTGSRDNAKNTVYLQMNSLKPEDTAVYYCAQRGDSGSNYDPSGYSYWGQGTQVTVSS | 157 nM | 0.303 s⁻¹ | 1.93e+06 M⁻¹ s⁻¹
9 | VHH antibody in which glycine in position 78 of SEQ ID NO: 1 was substituted with alanine (SEQ ID NO: 5) (VHH, Expressed in E. coli; also called G78A mutant) VHH: QVQLVESGGGLVQAGDSLRLSCAASGRTFSGYAMGWFRQAPGKEREFVARINWSGTLTYYADSVKGRFTASRDNAKNTVYLQMNSLKPEDTAVYYCAQRGDSGSNYDPSGYSYWGQGTQVTVSS | 13200 nM | 0.806 s⁻¹ | 61200 M⁻¹ s⁻¹
